Measured values as given in paper PMC10397247.
Blank lines part the entries; values can stand above or below the binder they belong to.

Key:
[1] = molecular target: T1, 4H932-bN; test: two-hybrid library CCNG1;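 note: natural log of median RNA to DNA barcode read ratio; higher means stronger binding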
T1 chain: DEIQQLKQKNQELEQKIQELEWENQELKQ

[2] = molecular target: T2, 4H949-bN; test: two-hybrid library CCNG1;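 note: natural log of median RNA to DNA barcode read ratio; higher means stronger binding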
T2 chain: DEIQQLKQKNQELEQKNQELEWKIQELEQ

[3] = molecular target: T3, 4H3009-AA; test: two-hybrid library CCmax;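 note: natural log of median RNA to DNA barcode read ratio; higher means stronger binding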
T3 chain: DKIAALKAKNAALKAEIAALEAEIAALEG

[4] = molecular target: T4, 4H3016-AA; test: two-hybrid library CCmax; settings: mean of both orientations;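 note: natural log of median RNA to DNA barcode read ratio; higher means stronger binding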
T4 chain: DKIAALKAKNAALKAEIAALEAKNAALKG

[5] = molecular target: T5, 4H310-AA; test: two-hybrid library CCmax; settings: mean of both orientations;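 note: natural log of median RNA to DNA barcode read ratio; higher means stronger binding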
T5 chain: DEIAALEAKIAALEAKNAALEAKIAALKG

[6] = molecular target: T6, 4H3120-AA; test: two-hybrid library CCmax; settings: mean of both orientations;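 note: natural log of median RNA to DNA barcode read ratio; higher means stronger binding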
T6 chain: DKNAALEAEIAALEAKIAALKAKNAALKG

[7] = molecular target: T7, 4H3130-AA; test: two-hybrid library CCmax; settings: mean of both orientations
T7 chain: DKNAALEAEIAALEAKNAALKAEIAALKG

[8] = molecular target: T8, 4H3165-AA; test: two-hybrid library CCmax; settings: mean of both orientations
T8 chain: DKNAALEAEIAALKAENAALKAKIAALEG

[9] = molecular target: T9, 4H3381-AA; test: two-hybrid library CCmax; settings: mean of both orientations
T9 chain: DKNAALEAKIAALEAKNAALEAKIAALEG

[10] = molecular target: T10, 4H3395-AA; test: two-hybrid library CCmax
T10 chain: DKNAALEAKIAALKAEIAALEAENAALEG

[11] = molecular target: T11, 4H3410-AA; test: two-hybrid library CCmax; settings: mean of both orientations
T11 chain: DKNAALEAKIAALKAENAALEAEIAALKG

[12] = molecular target: T12, 4H3590-AA; test: two-hybrid library CCmax; settings: mean of both orientations
T12 chain: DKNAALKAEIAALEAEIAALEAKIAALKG

[13] = molecular target: T13, 4H3697-AA; test: two-hybrid library CCmax; settings: mean of both orientations
T13 chain: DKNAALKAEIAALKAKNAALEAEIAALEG

[14] = molecular target: T14, 4H3753-AA; test: two-hybrid library CCmax; settings: mean of both orientations
T14 chain: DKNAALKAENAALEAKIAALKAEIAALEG

[15] = molecular target: T15, 4H3865-AA; test: two-hybrid library CCmax; settings: mean of both orientations
T15 chain: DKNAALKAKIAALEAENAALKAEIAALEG

[16] = molecular target: T16, 4H458-AA; test: two-hybrid library CCmax; settings: mean of both orientations
T16 chain: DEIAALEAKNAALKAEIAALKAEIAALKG

[17] = molecular target: T17, 4H485-AA; test: two-hybrid library CCmax; settings: mean of both orientations
T17 chain: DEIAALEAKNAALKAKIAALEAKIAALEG

[18] = molecular target: T18, 4H536-AA; test: two-hybrid library CCmax; settings: mean of both orientations
T18 chain: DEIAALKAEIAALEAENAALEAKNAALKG

[19] = molecular target: T19, 4H570-AA; test: two-hybrid library CCmax; settings: mean of both orientations
T19 chain: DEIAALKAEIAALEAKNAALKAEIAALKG

[20] = molecular target: T20, 4H629-AA; test: two-hybrid library CCmax; settings: mean of both orientations
T20 chain: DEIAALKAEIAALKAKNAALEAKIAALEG

[21] = molecular target: T21, 4H710-AA; test: two-hybrid library CCmax; settings: mean of both orientations
T21 chain: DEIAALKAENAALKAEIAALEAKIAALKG

[22] = molecular target: T22, 4H745-AA; test: two-hybrid library CCmax; settings: mean of both orientations
T22 chain: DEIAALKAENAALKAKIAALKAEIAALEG

[23] = molecular target: T23, 4H797-AA; test: two-hybrid library CCmax; settings: mean of both orientations
T23 chain: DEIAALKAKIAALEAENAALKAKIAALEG

[24] = molecular target: T24, 4H850-AA; test: two-hybrid library CCmax; settings: mean of both orientations
T24 chain: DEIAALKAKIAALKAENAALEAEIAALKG

[25] = molecular target: T25, 4H891-AA; test: two-hybrid library CCmax
T25 chain: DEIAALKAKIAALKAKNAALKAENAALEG

[26] = molecular target: T26, 4H909-AA; test: two-hybrid library CCmax; settings: mean of both orientations
T26 chain: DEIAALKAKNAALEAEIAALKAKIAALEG

[27] = molecular target: T27, 4H930-AA; test: two-hybrid library CCmax; settings: mean of both orientations
T27 chain: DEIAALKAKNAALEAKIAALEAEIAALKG

[28] = molecular target: T28, 4H94-AA; test: two-hybrid library CCmax; settings: mean of both orientations
T28 chain: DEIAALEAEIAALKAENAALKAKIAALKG

[29] = molecular target: T29, 4H3413-AA; test: two-hybrid library CCmax
T29 chain: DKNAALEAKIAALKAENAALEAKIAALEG

[30] = molecular target: T30, 4H3588-AA; test: two-hybrid library CCmax; settings: mean of both orientations
T30 chain: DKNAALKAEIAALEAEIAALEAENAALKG

[31] = molecular target: T31, 4H3606-AA; test: two-hybrid library CCmax; settings: mean of both orientations
T31 chain: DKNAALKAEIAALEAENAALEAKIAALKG

[32] = molecular target: T32, 4H3631-AA; test: two-hybrid library CCmax; settings: mean of both orientations
T32 chain: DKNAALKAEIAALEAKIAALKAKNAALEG

[33] = molecular target: T33, 4H3718-AA; test: two-hybrid library CCmax; settings: mean of both orientations
T33 chain: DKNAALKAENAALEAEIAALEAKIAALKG

[34] = molecular target: T34, 4H384-AA; test: two-hybrid library CCmax; settings: mean of both orientations
T34 chain: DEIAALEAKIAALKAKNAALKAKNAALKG

[35] = molecular target: T35, 4H697-AA; test: two-hybrid library CCmax; settings: mean of both orientations
T35 chain: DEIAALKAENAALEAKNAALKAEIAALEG

[36] = molecular target: T36, 4H982-AA; test: two-hybrid library CCmax; settings: mean of both orientations
T36 chain: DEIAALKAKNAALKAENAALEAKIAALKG

Binder: DEIQQLKQKNQELEQKIQELEWENQELKQ [4H932-bN]
interaction score [1]: 1.01
interaction score [2]: -1.08

Binder: DKIAALKAKNAALKAEIAALEAEIAALEG [4H3009-AA]
interaction score [3]: 2.25
interaction score [4]: -1.16
interaction score [5]: -0.567
interaction score [6]: -0.531
interaction score [7]: -0.967
interaction score [8]: -1.43
interaction score [9]: -1.54
interaction score [10]: -1.73
interaction score [11]: 0.321
interaction score [12]: 0.389
interaction score [13]: 0.129
interaction score [14]: 1.09
interaction score [15]: -1.6
interaction score [16]: 0.956
interaction score [17]: 1.22
interaction score [18]: -1.35
interaction score [19]: -0.427
interaction score [20]: 1.67
interaction score [21]: 1.94
interaction score [22]: 1.77
interaction score [23]: -1.65
interaction score [24]: 1.63
interaction score [25]: -1.57
interaction score [26]: 0.523
interaction score [27]: -0.0462
interaction score [28]: -0.794

More lines, now with the values ahead:

interaction score [2]: -0.614
Binder: DEIQQLKQKNQELEQKNQELEWKIQELEQ [4H949-bN]

interaction score [29]: 0.362
interaction score [30]: -1.34
interaction score [31]: 1.14
interaction score [32]: -1.19
interaction score [13]: -0.722
interaction score [33]: -1.38
interaction score [34]: -0.506
interaction score [15]: 0.0208
interaction score [35]: -0.828
interaction score [36]: -1.39
Binder: DKNAALEAKIAALKAENAALEAKIAALEG [4H3413-AA]
